Target: the molecule itself
Experiment: SDS-PAGE of the purified protein (monomer and dimer bands); purified MxDnaKs and chimeras on SDS-PAGE without DTT treatment; band compositions confirmed by LC/MS

B1: His6-MxDnaK2, purified recombinant (natural protein, Myxococcus xanthus DK1622, UniProt P95334 1-607, looked up)
chain: MGKVIGIDLGTTNSCVAVMEGGEPVVIPNSEGSRTTPSMVGFTDSGERLVGQIAKRQAITNPENTVFAAKRLIGRKFDSPEGKKAIGVSPFKVASSPNGDAWVEIRGKGYSPPEVSAIVLMKMKQTAEDYLGEQVSEAVITVPAYFNDSQRQATKDAGRIAGLSVLRIINEPTAAALAYGLDKVQDGGTERIAVYDLGGGTFDISILELNAGVFEVKSTNGDTFLGGEDFDQRLIDYLAKRFAESNNGLDLRKDRMALQRLKEAAERAKHELSSAPETEVNLPFITADASGPKHLTETVDRATFEALVTDLIDRTIEPCRIALKDAGIPAQQINQVLLVGGMTRMPRVQQKVKEFFGREPHKGINPDEVVAVGAAIQGGVLKGEVKDVLLLDVTPLSLGVETAGGVFTKIIDKNTTIPCKKSQVFSTAVDNQPLVSVHVLQGEREMAADNKTLARFELVGIPPAPRGVPQIEVSFDIDANGIVHVSAKDLGTGKVQQVRVVSNSGLSEAEIQAMISDAQSHASDDKKKKELAELRNNADGLIYTTEKSLEEYASLLSEKDREEIKADLERLKEVLNTSDAAVLKESFQRLEGSAYRIADAIYTGQAS
notes: MxDnaK2 (MXAN_6671), DnaK of Myxococcus xanthus DK1622; gene amplified from genomic DNA into pET28A; His6-MxDnaK2 printed as 65.3 kDa; source: E. coli BL21 (DE3), purified (Ni-NTA); not shown: His6, N-terminal, kept
stoichiometry N: 2

— article doi:10.1101/2023.06.19.545549, “DnaK duplicates and regionally evolves for the increase of proteomic complexity in bacteria” (bioRxiv, 2023)
